# Experimental data taken from patent publication US20120277143A1 (Janssen / Centocor, published 2012).
# B1: C01_6G9_V1_C06_28E5_V1 (designed binder)
# chain: DLDKKLLEAARAGQDDEVRILMANGADVNARDSYGSTPLHLAAREGHLEIVEVLLKYGADVNAADFIGDTPLHLAAYRGHLEIVEVLLKYGADVNASDITGETPLHLAAQIGHLEIVEVLLKHGADVNAQDKFGKTAFDISIDNGNEDLAEILQKLGGGGSGGGGSGGGGSGGGGSRSDLGKKLLEAARAGQDDEVRILMANGADVNAADDSGITPLHLAAEDGHLEIVEVLLKAGADVNAQDNLGDTPLHLAAWTGHLEIVEVLLKAGADVNAYDISGITPLHLAAFYGHLEIVEVLLKHGADVNAQDKFGKTAFDISIDNGNEDLAEILQKLN
# notes: bispecific IL13/IL4 ankyrin repeat protein with (GGGGS)4 linker; also called bispecific AR protein
# B2: IL13 binding protein 6G9 (designed binder)
# chain: DLGKKLLEAARAGQDDEVRILMANGADVNARDSYGSTPLHLAAREGHLEIVEVLLKYGADVNAKDMIGDTPLHLAAYRGHLEIVEVLLKNGADVNASDITGETPLHLAAQIGHLEIVEVLLKYGADVNAQDKFGKTAFDISIDNGNEDLAEILQKLN
# B3: 6G9r13 (designed binder)
# chain: ALDKKLLEAARAGQDDEVRILMANGADVNARDSYGSTPLHLAAREGHLEIVEVLLKYGADVNAADFIGDTPLHLAAYRGHLEIVEVLLKYGADVNASDITGETPLHLAAQIGHLEIVEVLLKHGADVNAQDKFGKTAFDISIDNGNEDLAEILQKAA
# notes: optimized 6G9; expressed without HIS tag
# B4: C06_53G6v1 (designed binder)
# chain: DLGKKLLEAARAGQDDEVRILMANGADVNATDDWGDTLLHLAATDGHLEIVEVLLKAGADVNANDAIGDTPLHLAALYGHLEIVEVLLKYGADVNATDLHGFTPLHLAAFWGHLEIVEVLLKHGADVNAQDKFGKTAFDISIDNGNEDLAEILQKLN
# B5: 7G11 (designed binder)
# chain: DLGKKLLEAARAGQDDEVRILMANGADVNATDEFDSTPLHLAARHGHLEIVEVLLKYGADVNAADFIGDTPLHLAAYRGHLEIVEVLLKCGVDVNADDHGDTPLHLAASMGHLEIVEVLLKNGADVNAQDKFGKTAFDISIDNGNEDLAEILQKLN
# notes: ankyrin repeat protein
# B6: 7G11r7 (designed binder)
# chain: GLDKKLLEAARAGQDDEVRILMANGADVNATDEFDSTPLHLAARHGHLEIVEVLLKYGADVNAADFIGDTPLHLAAYRGHLEIVEVLLKYGVDVNADDHGDTPLHLAASTGHLEIVEVLLKHGADVNAQDKFGKTAFDISIDNGNEDLAEILQKAA
# notes: optimized 7G11; expressed without HIS tag
# B7: 9F8r3 (designed binder)
# chain: GLDKKLLEAARAGQDDEVRILMANGADVNASDIFGSTPLHLAARHGHLEIVEVLLKYGADVNAFDFIGDTPLHLAAYRGHLEIVEVLLKYGVDVNADDHGDTPLHLAAQIGHLEIVEVLLKHGADVNAQDKFGKTAFDISIDNGNEDLAEILQKAA
# notes: optimized 9F8; expressed without HIS tag
# B8: C06_28E5v1 (designed binder)
# chain: DLGKKLLEAARAGQDDEVRILMANGADVNAADDSGITPLHLAAEDGHLEIVEVLLKAGADVNAQDNLGDTPLHLAAWTGHLEIVEVLLKAGADVNAYDISGITPLHLAAFYGHLEIVEVLLKHGADVNAQDKFGKTAFDISIDNGNEDLAEILQKLN
# B9: C06_53G6_V1_C01_6G9_V1 (designed binder)
# chain: DLGKKLLEAARAGQDDEVRILMANGADVNATDDWGDTLLHLAATDGHLEIVEVLLKAGADVNANDAIGDTPLHLAALYGHLEIVEVLLKYGADVNATDLHGFTPLHLAAFWGHLEIVEVLLKHGADVNAQDKFGKTAFDISIDNGNEDLAEILQKLNGGGGSGGGGSGGGGSGGGGSDLDKKLLEAARAGQDDEVRILMANGADVNARDSYGSTPLHLAAREGHLEIVEVLLKYGADVNAADFIGDTPLHLAAYRGHLEIVEVLLKYGADVNASDITGETPLHLAAQIGHLEIVEVLLKHGADVNAQDKFGKTAFDISIDNGNEDLAEILQKLN
# notes: bispecific IL4/IL13 ankyrin repeat protein with (GGGGS)4 linker; also called bispecific AR protein
# Tests used:
# human IL13 [1] = biological target: T1, human IL13 (human, UniProt P35225 35-146, biotinylated in the SPR assays (sites not given)); assay: cell-based or functional assay
# T1 sequence (P35225 other isoform, or with tags, fused parts or gaps limits assumed): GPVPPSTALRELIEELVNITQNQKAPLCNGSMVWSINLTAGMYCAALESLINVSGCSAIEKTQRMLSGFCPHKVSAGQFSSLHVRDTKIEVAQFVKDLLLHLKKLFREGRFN
# human IL4 [2] = biological target: T2, human IL4 (human, UniProt P05112 25-153, biotinylated in the SPR and competition assays (sites not given)); assay: cell-based or functional assay
# T2 sequence: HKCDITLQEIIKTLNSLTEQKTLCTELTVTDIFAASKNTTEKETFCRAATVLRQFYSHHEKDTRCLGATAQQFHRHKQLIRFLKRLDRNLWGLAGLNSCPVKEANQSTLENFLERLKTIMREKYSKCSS
# human IL4 [3] = biological target: T2, human IL4; assay: Affinity to IL4; method not re-described
# human IL13 [4] = biological target: T1, human IL13; assay: Affinity to IL13; method not re-described
# human IL4 [5] = biological target: T2, human IL4; assay: IL4R binding inhibition; repeats Table 17
# Experimental: AR protein inhibition of IL4 binding to IL4 RA was assessed using IL4 RA-Fc (R&D Systems), comprising the Gly24-His232 which represents the ECD (SEQ ID NO: 5) fused to a human IgGl-Fc and therefor a disulfide linked homodimer. The protein was conjugated to carboxylated Luminex microspheres according to the manufacturer's protocol. For neutralization experiments, 5000 IL4RA-Fc conjugated beads in 50 μl were added to each well of a 96-well filter plate (Millipore). Biotinylated human IL4 was mixed with an appropriate dilution of AR protein in Luminex Assay Buffer (PBS, 1% BSA, pH 7.4) to give a final concentration of 67 pM IL4. The plate was incubated for 1 hour at RT in the dark on a plate shaker, set to shake vigorously to avoid bead aggregation. The plate was washed twice with 150 μl of wash buffer (PBS, 0.1% BSA, pH 7.4, 0.05% Tween-20) using a vacuum manifold followed by the addition of 50 μl of Streptavidin PE at 25 μg/ml and incubated at RT for 20 minutes. The plates were washed again and 150 μl of sheath fluid was added and the plate was placed on the shaker for 5 minute. Plates were read using a Luminex® 100 system; data were plotted as a function of AR protein concentration. IC₅₀ values were determined by fitting the data to the equation for sigmoidal dose response using PRISM software (GraphPAD PRISM) (Table 6).
# human IL13 R130Q [6] = biological target: T3, human IL13 R130Q (human, UniProt P35225 35-146, biotinylated (sites not given)); assay: IL13Ra2 binding inhibition; repeats Table 17
# T3 construct: Peprotech; also called IL13R13Q; R111Q
# T3 sequence (P35225 35-146 limits assumed, stated change not applied): as the sequence (P35225 other isoform, or with tags, fused parts or gaps limits assumed) above, with R110Q counted along it
# Experimental: (§1) Binding protein inhibition of IL13 binding to Rα2 was assessed using IL13Rα2-Fc (R&D Systems) conjugated to carboxylated Luminex microspheres according to the manufacturer's protocol. For biotinylation of IL13, recombinant human IL13 R130Q (Peprotech) was biotinylated at a 4:1 ratio using EZ-Link NHS-LC-Biotin (Pierce, #21336) for 2 hours at RT. The protein was dialyzed in PBS overnight to remove excess biotinylation reagent. For neutralization experiments, 5000 IL13 Rα2-Fc conjugated beads in 50 μl were added to each well of a 96-well filter plate (Millipore). 50 μl of biotinylated human IL13 at 1 ng/ml (80 pM) was mixed with an appropriate dilution of binding protein in Luminex Assay Buffer (PBS, 1% BSA, pH 7.4). The plate was incubated for 1 hour at RT in the dark on a plate shaker, set to shake vigorously to avoid bead aggregation. The plate was washed 3 times with 150 μl of wash buffer (PBS, 1% BSA, pH 7.4, 0.05% Tween-20) using a vacuum manifold followed by the addition of 50 μl of Streptavidin PE at 25 μg/ml and incubated at RT for 20 minutes. The plates were washed again and 100 μl of sheath fluid was added and the plate was placed on the shaker for 1 minute. Plates were read using a Luminex® 100 system; data were plotted as a function of binding protein concentration. IC₅₀ values were determined by fitting the data to the equation for sigmoidal dose response using PRIZM software (GraphPAD PRIZM).
# human IL4 [7] = biological target: T2, human IL4; assay: IL4RA binding inhibition; assay not re-described (Luminex of Example 2)
# human IL13 R130Q [8] = biological target: T3, human IL13 R130Q; assay: IL13Ra2 binding inhibition; assay not re-described (Luminex of Example 2)
# Experimental: as §1
# human IL13 [9] = biological target: T1, human IL13; assay: cell-based or functional assay; remark: listed apart in the source
# cyno IL13 = cyno IL13 (cynomolgus monkey, UniProt Q0PW92 21-132); assay: cell-based or functional assay
# Sequence of cyno IL13 (Q0PW92 entry or part of it): as the sequence (P35225 other isoform, or with tags, fused parts or gaps limits assumed) above, with G1S, R10K, M42V, S67N, H83R, L100V, R110Q counted along it
# human IL13 [10] = biological target: T1, human IL13; assay: cell-based or functional assay; remark: listed apart in the source
# human IL13 [11] = biological target: T1, human IL13; assay: SPR BIAcore, biotin-IL13 on SA chip, global fit
# Experimental: Recombinant human IL13 (Peprotech) was minimally biotinylated on ice using sulfo-NHS-LCLC-Biotin and desalted into the experimental running buffer containing 10 mM HEPES, 150 mM NaCl, pH 7.4, 0.01% Tween-20, and 0.1 mg/mL BSA. Biotinylated IL13 was captured at three different surface densities (from about 150, 50, and 25 RU) onto three different BIAcore SA (streptavidin) sensor chips. Each binding protein sample was tested at 40 nM as the highest concentration in a 3-fold dilution series over the three different density IL13 surfaces. The dissociation phase for the highest concentration of the binding protein sample was monitored for one hour. The response data from each of the different density surfaces was globally fitted in order to extract estimates of the kinetic and affinity constants which are provided in Table 7 below.
# human IL13 [12] = biological target: T1, human IL13; assay: SPR ProteOn, biotin-hIL13 on streptavidin, 1:1 global fit
# Experimental: Complete kinetic data describing binding of various engineered binding protein molecules to human IL13 was measured using a method similar to that described above for the single point affinity analysis. Briefly, streptavidin (Pierce) was immobilized to similar levels (˜1800 RUs) on all six channels of a ProteOn GLC chip via amine coupling (pH 5.0). Biotinylated hIL13 was captured at different surface densities (600˜100 RUs) on different channels. Protein binding was tested starting at 40 nM diluted in a 3-fold concentration series over the different density IL13 surfaces; a buffer sample was injected to monitor the baseline stability. Dissociation phases for all concentrations of each binding protein sample were monitored for one hour at a flow rate of 100 μl/min. Response data for all concentration series from the different density surfaces were globally fit to a 1:1 simple langmuir binding model to extract values of the kinetic (kₒₙ, koff) and affinity (KD) constants provided in Table 16.
# human IL13 R130Q [13] = biological target: T3, human IL13 R130Q; assay: Luminex competition, 80 pM biotin-IL13 R130Q binding to IL13Ra2-Fc beads
# Experimental: as §1
# human IL4 [14] = biological target: T2, human IL4; assay: cell-based or functional assay; remark: listed apart in the source
# human IL4 [15] = biological target: T2, human IL4; assay: binding to recombinant IL4; kinetic method not restated
binder,measurement,setting,value
B1,A549/TARC IL13 IC50,human IL13 [1],92 pM
same,HEK Stat6 human IL13 IC50,human IL13 [1],19 pM
same,A549/TARC IL4 IC50,human IL4 [2],33 pM
same,HEK stat6 hIL4 IC50,human IL4 [2],2 pM
same,Ramos Assay IC50,human IL4 [2],6.9 pM
same,Kd,human IL4 [3],3.1 pM
same,Kd,human IL13 [4],0.0166 nM
same,IC50,human IL4 [5],0.024 nM
same,IC50,human IL13 R130Q [6],0.032 nM
same,IC50,human IL4 [7],0.024 nM
same,IC50,human IL13 R130Q [8],0.032 nM
B2,STAT6 Phospho IC50,human IL13 [9],17.4 pM
same,TARC expression IC50,human IL13 [9],64 pM
same,Cyno IL13 STAT6 IC50,cyno IL13,96.4 pM
same,HEK STAT6 IC50,human IL13 [10],17.4 pM
same,Kd,human IL13 [11],0.0577 nM
same,koff,human IL13 [11],5.74e-05 s⁻¹
same,kon,human IL13 [11],995000 M⁻¹ s⁻¹
same,Kd,human IL13 [12],0.0249 nM
same,IC50,human IL13 R130Q [13],0.031 nM
B3,HEK STAT6 IC50,human IL13 [10],5.6 pM
same,Kd,human IL13 [12],0.0251 nM
B4,IC50 STAT6,human IL4 [14],1.4 pM
same,Kd,human IL4 [15],1.8 pM
B5,STAT6 Phospho IC50,human IL13 [9],2.5 pM
same,TARC expression IC50,human IL13 [9],19.6 pM
same,Cyno IL13 STAT6 IC50,cyno IL13,98 pM
same,HEK STAT6 IC50,human IL13 [10],2.5 pM
same,Kd,human IL13 [11],0.0328 nM
same,koff,human IL13 [11],5.3e-05 s⁻¹
same,kon,human IL13 [11],1.62e+06 M⁻¹ s⁻¹
same,Kd,human IL13 [12],0.0168 nM
same,IC50,human IL13 R130Q [13],0.0034 nM
B6,HEK STAT6 IC50,human IL13 [10],85 pM
same,Kd,human IL13 [12],0.0242 nM
B7,HEK STAT6 IC50,human IL13 [10],202 pM
same,Kd,human IL13 [12],0.0656 nM
B8,IC50 STAT6,human IL4 [14],3.1 pM
same,Kd,human IL4 [15],8.38 pM
B9,A549/TARC IL13 IC50,human IL13 [1],131 pM
same,HEK Stat6 human IL13 IC50,human IL13 [1],27 pM
same,A549/TARC IL4 IC50,human IL4 [2],50 pM
same,HEK stat6 hIL4 IC50,human IL4 [2],3.9 pM
same,Ramos Assay IC50,human IL4 [2],8 pM
same,Kd,human IL4 [3],10.9 pM
same,Kd,human IL13 [4],0.0384 nM
same,IC50,human IL4 [5],0.034 nM
same,IC50,human IL13 R130Q [6],0.199 nM
same,IC50,human IL4 [7],0.034 nM
same,IC50,human IL13 R130Q [8],0.199 nM
